What all share (assay): SA08b binding assay: competition with biotinylated SA08b for immobilized albumin
Assay [1] has as its target mouse albumin (mouse), P07724.
Assay [2] has as its target T1, rabbit albumin (rabbit), P49065.
T1 chain: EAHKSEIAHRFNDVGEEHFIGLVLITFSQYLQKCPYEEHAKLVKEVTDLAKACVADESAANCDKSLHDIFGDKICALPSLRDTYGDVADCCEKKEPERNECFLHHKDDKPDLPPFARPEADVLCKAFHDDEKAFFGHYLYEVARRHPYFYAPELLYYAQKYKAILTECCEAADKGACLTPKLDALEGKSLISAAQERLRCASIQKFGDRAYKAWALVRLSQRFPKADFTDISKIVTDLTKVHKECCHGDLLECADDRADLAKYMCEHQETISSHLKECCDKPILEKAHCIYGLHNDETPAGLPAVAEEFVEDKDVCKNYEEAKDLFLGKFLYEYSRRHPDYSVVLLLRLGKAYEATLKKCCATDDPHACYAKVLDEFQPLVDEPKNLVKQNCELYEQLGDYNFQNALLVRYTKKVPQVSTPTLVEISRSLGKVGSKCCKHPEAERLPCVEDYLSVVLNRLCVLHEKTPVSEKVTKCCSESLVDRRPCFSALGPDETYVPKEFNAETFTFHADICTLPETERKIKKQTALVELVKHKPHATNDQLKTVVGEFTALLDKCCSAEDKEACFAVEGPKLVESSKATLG

Assay [3] deals with T2, rat albumin (rat), P02770.
T2 chain: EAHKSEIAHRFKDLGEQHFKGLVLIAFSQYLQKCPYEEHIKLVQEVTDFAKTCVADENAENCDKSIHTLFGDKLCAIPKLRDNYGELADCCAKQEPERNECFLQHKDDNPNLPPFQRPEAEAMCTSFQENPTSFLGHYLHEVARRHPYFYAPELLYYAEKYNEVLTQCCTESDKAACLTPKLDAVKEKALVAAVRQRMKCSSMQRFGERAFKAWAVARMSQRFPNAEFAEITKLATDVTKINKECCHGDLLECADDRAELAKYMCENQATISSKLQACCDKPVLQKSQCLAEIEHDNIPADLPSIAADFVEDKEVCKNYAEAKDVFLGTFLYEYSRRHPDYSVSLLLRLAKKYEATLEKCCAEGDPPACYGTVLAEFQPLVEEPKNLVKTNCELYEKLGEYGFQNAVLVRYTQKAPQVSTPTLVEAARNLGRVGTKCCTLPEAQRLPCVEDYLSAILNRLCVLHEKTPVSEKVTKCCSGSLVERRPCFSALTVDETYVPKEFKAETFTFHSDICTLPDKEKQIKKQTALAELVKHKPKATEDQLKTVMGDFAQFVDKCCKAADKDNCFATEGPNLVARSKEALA

Sequence of mouse albumin (mouse), P07724 (P07724 25-608 limits assumed): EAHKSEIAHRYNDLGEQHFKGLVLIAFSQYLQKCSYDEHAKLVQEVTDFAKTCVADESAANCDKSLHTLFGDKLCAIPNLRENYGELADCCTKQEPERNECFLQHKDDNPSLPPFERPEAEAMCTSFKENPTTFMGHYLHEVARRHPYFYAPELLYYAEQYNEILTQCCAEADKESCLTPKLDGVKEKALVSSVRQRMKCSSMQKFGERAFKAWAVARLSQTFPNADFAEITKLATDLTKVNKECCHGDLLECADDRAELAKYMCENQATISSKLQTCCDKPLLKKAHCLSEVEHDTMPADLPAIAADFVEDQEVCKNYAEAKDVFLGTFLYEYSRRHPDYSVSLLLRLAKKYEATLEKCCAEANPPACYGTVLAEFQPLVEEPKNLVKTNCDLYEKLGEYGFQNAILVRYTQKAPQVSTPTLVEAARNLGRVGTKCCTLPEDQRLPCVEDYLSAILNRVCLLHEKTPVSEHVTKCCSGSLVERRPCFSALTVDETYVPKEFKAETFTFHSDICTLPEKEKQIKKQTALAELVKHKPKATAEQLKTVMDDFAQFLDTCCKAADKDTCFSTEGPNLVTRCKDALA

B1: SA13 (peptide)
peptide: RLMEDICLARWGCLWEDD
modifications: not checked
For B1, the IC50 (usually the concentration needed to halve the response being measured) in assay [1] was 188 nM; in assay [2], 3200 nM; in assay [3], 2480 nM.

B2: SA10 (peptide)
peptide: RLMEDICLPRWGCLWEDD
modifications: not checked
As to B2, the IC50 in assay [1] stood at 4 nM; in assay [2] it was 86 nM; in assay [3], 77 nM.

Values taken from patent US20040253247A1.
